Assay results published in US20190376079A1 (WHITEHEAD INSTITUTE FOR BIOMEDICAL RESEARCH, published 2019).

Target: SBP-tagged EF2 purified from WDR85 deficient (WDR85GT) cells (human, UniProt P13639 1-858)
Experiment: co-purification with SBP-tagged EF2 on streptavidin sepharose from WDR85GT cells; silver stain, mass spectrometry, immunoblot
From the text: Proteins were separated using SDS-PAGE gel electrophoreses and visualized using silverstaining. For mass spectrometry, the EF2 band was purified from gel and digested using trypsin.

B1: DPH5 (enzyme)
chain: MLYLIGLGLGDAKDITVKGLEVVRRCSRVYLEAYTSVLTVGKEALEEFYGRKLVVADREEVEQEADNILKDADISDVAFLVVGDPFGATTHSDLVLRATKLGIPYRVIHNASIMNAVGCCGLQLYKFGETVSIVFWTDTWRPESFFDKVKKNRQNGMHTLCLLDIKVKEQSLENLIKGRKIYEPPRYMSVNQAAQQLLEIVQNQRIRGEEPAVTEETLCVGLARVGADDQKIAAGTLRQMCTVDLGEPLHSLIITGGSIHPMEMEMLSLFSIPENSSESQSINGL
notes: also called methyltransferase DPH5
Q: Does B1 bind?
A: binds
